Measured values from PMC9700705, “A non-carboxylating pentose bisphosphate pathway in halophilic archaea” (Communications Biology, 2022).

Legend:
[1] = molecular target: T1, glycolaldehyde reductase (GaR, VNG_6270G) (Halobacterium salinarum, UniProt Q9HHR2); assay: NADH consumption at […] nm; format: biochemical; conditions: 0.2 mM NADH, 50 mM MES-NaOH pH 6.0, 3 M KCl, 40 °C; fit with substrate inhibition; substrate inhibition constant, second site
T1 construct: native protein purified from H. salinarum cell-free extract (hydroxyapatite, Superdex200), identified by LC-MS; plasmid-encoded; GenBank entry is the codon-optimised recombinant gene (Hs-GaR)
T1 sequence (Q9HHR2 1-365): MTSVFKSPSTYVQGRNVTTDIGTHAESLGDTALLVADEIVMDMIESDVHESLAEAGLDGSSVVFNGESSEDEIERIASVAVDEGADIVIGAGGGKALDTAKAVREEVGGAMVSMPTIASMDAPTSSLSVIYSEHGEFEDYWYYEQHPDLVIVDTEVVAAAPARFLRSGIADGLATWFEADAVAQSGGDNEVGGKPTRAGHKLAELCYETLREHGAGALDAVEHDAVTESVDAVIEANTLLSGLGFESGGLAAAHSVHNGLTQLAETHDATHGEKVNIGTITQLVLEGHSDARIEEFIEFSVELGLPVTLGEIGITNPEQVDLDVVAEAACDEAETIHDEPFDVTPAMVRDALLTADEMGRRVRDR

Hx-RbsK (ATP-R1PK) [2] = molecular target: T2, Hx-RbsK (ATP-R1PK) (Halopiger xanaduensis, UniProt F8D4I6); assay: PK/LDH-coupled NDP quantification; HPLC of product R15P; format: biochemical; conditions: 20 mM MgCl2, 2 M KCl, pH 8.3-8.4, 47 °C
T2 construct: gene Halxa_1682; recombinant from E. coli Rosetta (DE3), codon-optimised synthetic gene in pET-21a(+) NdeI/BamHI, purified on anion exchange, hydroxyapatite and gel filtration

Hx-RbsK (ATP-R1PK) [3] = molecular target: T2, Hx-RbsK (ATP-R1PK); assay: PK/LDH-coupled NDP quantification; format: biochemical; conditions: 25 mM R1P, 20 mM MgCl2, 0.8 M NaCl, 42 °C
purified protein [4] = substrate: O=P(O)(O)O; assay: purified protein; conditions: 1 mM guanosine, 2 M KCl, 30 °C
purified protein [5] = substrate: Nc1nc2c(ncn2[C@@H]2O[C@H](CO)[C@@H](O)[C@H]2O)c(=O)[nH]1; assay: purified protein; format: biochemical, Halorubrum lacusprofundi; conditions: 50 mM sodium phosphate pH 7.5, 2 M KCl, 30 °C
[6] = substrate: O=CCO; assay: HPLC of Ru1P formed (condensation direction); format: biochemical, Halopiger xanaduensis; conditions: 20 mM DHAP, 50 mM Tris-HCl pH 8.0, 2 M KCl, 1 mM ZnCl2, 47 °C
[7] = substrate: O=C(CO)COP(=O)(O)O; assay: HPLC of Ru1P formed (condensation direction); format: biochemical, Halopiger xanaduensis; conditions: 50 mM glycolaldehyde, 50 mM Tris-HCl pH 8.0, 2 M KCl, 1 mM ZnCl2, 47 °C
purified protein [8] = substrate: O=C(COP(=O)(O)O)[C@H](O)[C@H](O)COP(=O)(O)O; assay: purified protein; format: biochemical, Halopiger xanaduensis; conditions: 50 mM Tris-HCl pH 7.5, 2 M KCl, 5 mM MgCl2
purified protein [9] = substrate: O=CCO; assay: purified protein; format: biochemical, Halobacterium salinarum; conditions: 0.2 mM NADH, 50 mM MES-NaOH pH 6.0, 3 M KCl, 40 °C, fit with substrate inhibition

T2 sequence (F8D4I6 whole entry): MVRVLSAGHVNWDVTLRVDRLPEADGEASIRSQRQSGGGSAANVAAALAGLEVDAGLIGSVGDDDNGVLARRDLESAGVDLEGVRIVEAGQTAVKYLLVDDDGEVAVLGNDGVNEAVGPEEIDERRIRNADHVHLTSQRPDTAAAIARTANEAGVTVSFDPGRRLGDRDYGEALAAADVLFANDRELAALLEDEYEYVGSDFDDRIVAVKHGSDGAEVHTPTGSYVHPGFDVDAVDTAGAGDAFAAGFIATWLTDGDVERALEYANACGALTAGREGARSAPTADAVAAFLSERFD

Work on `O=CCO` [glycolaldehyde] yielded a Ks2 [1] of 35 ± 8 mM.

In the case of `O=P(O)(O)O[C@H]1O[C@H](CO)[C@@H](O)[C@H]1O` [R1P], the “PK/LDH-coupled NDP quantification; HPLC of product R15P” value (Hx-RbsK (ATP-R1PK) [2]) is reported as “HPLC analysis of the Hx-RbsK reaction product indicated that R15P was generated from R1P”.

In the case of `Nc1ncnc2c1ncn2[C@@H]1O[C@H](COP(=O)(O)OP(=O)(O)OP(=O)(O)O)[C@@H](O)[C@H]1O` [ATP], the “PK/LDH-coupled NDP quantification” value (Hx-RbsK (ATP-R1PK) [3]) is reported as “Using R1P as the phosphate acceptor, the enzyme preferred ATP among NTPs”.

B1: Hl-Urdpase1 (guanosine phosphorylase) (Halorubrum lacusprofundi ATCC 49239) (protein)
chain: MAKQPHLLVEEGDVHEIAIIPGDPGRVDRIADLCDDSELVAQNREYKIVNASYDGTDLTICSTGIGCPSAAIAVEELSRVGVETFLRCGTCGALQADMEVGDMVVATGAAKEEGTSKRYESVEYPAVPDYDALTELVGAAEDNDEEIHVGPIVSDDAFYNESDEYVDDWNDANLLAIEMEAATVFALARRKGLRAGAICTVDGNLVAGNQKGADSDDELPEKAKDNVERAIRITLNAVTAL
notes: recombinant from E. coli BL21-CodonPlus(DE3)-RIL, codon-optimised synthetic gene in pET-21a(+) NdeI/BamHI, purified on hydroxyapatite and gel filtration
Molecule B1 has a Km (purified protein [4]) of 4.8 ± 0.8 mM and a Km (purified protein [5]) of 0.056 ± 0.01 mM.

B2: Hx-FucA (Ru1P aldolase) (Halopiger xanaduensis SH-6) (protein)
chain: MILETERRAVVEHASELADLTPGRTGNLSVRGSGDDTDAGPGDAFAITPTGVPYDGFDVEDVPVVGTDGERLDGEMAPSSEVPMHSAIYRREDVGAIVHTHSPWATALAVANQPLPPIHYMIVAVGKRVPVAEYAPYGTDELAENIVTAMTEAGSTASLIENHGLVVTAPDLETALENTHHVESLARLYLESRSAGLEPQTLTDDQLETVLEKFESYGQ
notes: recombinant from E. coli Rosetta (DE3), codon-optimised synthetic gene in pET-21a(+) NdeI/BamHI, purified on anion exchange, hydroxyapatite and gel filtration
Molecule B2 has a Km [6] of 3.4 ± 0.3 mM and a Km [7] of 3.5 ± 0.3 mM.

B3: Hx-HAD hydrolase (RuBP phosphatase) (Halopiger xanaduensis SH-6) (protein)
chain: MATAVLFDLDNTLYPYPPCNQAGKAAALERAQELGYDFDHESFAEFYQAGRREVKRDTGGTAASHERYLYFKRALELHTGSPRPGDALALGDAYWSAYLEEMSLVPDAKETLEELQEQGVDIAITTNLTTTIQLAKLERLGLTDYVDLVLTSEETGQEKPASVMFTLPLARLDSRASEAVMVGDDLEADIAGANAVGLETVLFDPSEESDATESADRAATERQADHSIDTLGELTDLVS
notes: recombinant from E. coli Rosetta (DE3), codon-optimised synthetic gene in pET-21a(+) NdeI/BamHI, purified on hydroxyapatite and gel filtration
B3 gave a Km (purified protein [8]) of 2.2 ± 0.5 mM.

B4: glycolaldehyde reductase (GaR, VNG_6270G) (Halobacterium salinarum NRC-1) (protein)
chain: T1 sequence (Q9HHR2 1-365)
notes: native protein purified from H. salinarum cell-free extract (hydroxyapatite, Superdex200), identified by LC-MS; plasmid-encoded; GenBank entry is the codon-optimised recombinant gene (Hs-GaR)
In the case of B4, the Km (purified protein [9]) is reported as 10 ± 2 mM.
